US20090291083A1, “BARB4 TARGET, ANTIBODY DESIGNATED BARB4, BARB4 RELATED ANTIBODIES, AND METHODS OF MAKING AND USING SAME” (PATRYS LIMITED, priority 2008, published 2009)

Experiments:
HCT-116 = assay: MTT cell proliferation assay (Table 3); assay type: cell-based, human
Method: (§1) BARB4 was also evaluated for inhibition of proliferation of other cancer cell lines, including BxPC-3, COLO 205, H460, MDA-MB-231 and MIAPaCa-2 cells, as well as HT-29, HCT-116, BxPC-3, PANC-1, A549, PC-3 and HCT116 cells. In brief, various human cancer cell lines obtained from the American Type Culture Collection (ATCC) were established using standard in vitro culture methods and ATCC recommended media in 175 cm2 BD tissue culture treated flasks. In particular, MDAMB-231 cultures were incubated in a humidified 37° C., 100% air incubator, and BxPC-3, COLO 205, H460 and MIAPaCa-2 cultures were incubated in a humidified 37° C., 5% CO2, 95% air incubator. Cultures were sub-cultivated regularly to maintain log phase growth. All cell lines were brought up from cryopreservation using the original recommended ATCC media type and supplements. Cell line specific seeding densities were based on historical data from MIR Preclinical Services for growth over a 72 hr period.
(§2) The anti-proliferative activity of BARB4 and cisplatin was evaluated using the MTT cell proliferation assay (ATCC catalog #30-1010K). The assay is based on the reduction of yellow tetrazolium MTT (3-(4,5-dimethylthiazolyl-2)-2,5-diphenyltetrazolium bromide) by metabolically active cells forming purple formazan crystals. The purple formazan is solubilzed with detergent and quantified spectrophotometrically at 570 nm (MTT Cell Proliferation Assay, ATCC 30-1010K; Van de Loosdrecht, et al. J. Immunol. Methods 174:311 (1994): Ferrari, et al. J. Immunol. Methods 131:165 (1990); Gerlier, D., and N. Thomasset. J. Immunol. Methods 94:57 (1986); Alley, et al. Cancer Res. 48:589 (1988); and Mosmann, T. J. Immunol. Methods 65:55 (1983)). The MTT Cell Proliferation Assay Kit from ATCC contains ready to use MTT and detergent solutions.
(§3) Cells in the log phase of growth were seeded into 96-well culture plates in 0.1 mL of complete medium in all wells except column 12 which was reserved for media-only control (blank) and allowed to attach overnight at 37° C. Compounds were diluted in complete culture media and added to each well in a volume of […] for a final 1:2 dilution from the 2× dilution reservoir concentration. At 24 and 48 hr post-treatment, 100 μl of media was removed and 0.01 mL of MTT reagent was added to each well. The plates were returned to the incubator for four hours. Detergent reagent (0.1 mL) was then added and the plates incubated overnight at 37° C. in the dark to solubilize the formazan crystals. The absorbance at 570 nm was measured with a SpectraMAX® Plus plate reader (Molecular Devices Corporation) at 24 and 48 hr post-detergent addition. Absorbance values were converted to percent of control and then plotted against test agent concentrations for IC50 calculations using SoftMax® Pro v. 5.2 (Molecular Devices Corporation). Plots of percent of control vs. compound (BARB4 or cisplatin) concentration were analyzed using the 4 parameter equation to obtain IC50 values and other parameters that describe the sigmoidal curve along with an R2 value.
(§4) Using the same MTT assay as described for the BxPC-3, COLO 205, H460, MDA-MB-231 and MIAPaCa-2 cells, proliferation of HT-29, HCT-116, BxPC-3, PANC-1, A549, PC-3 and HCT116 cells was evaluated and IC50 (μg/ml) was calculated at 24, 48 and 72 hours. The cell culture protocol for passaging adherent cells used is substantially as described above for the BxPC-3, COLO 205, H460, MDA-MB-231, and MIAPaCa-2 cells. The following were the cell line propagation conditions:
(§5) Atmosphere. 5% CO2, humidified Media Supplements Used: * FBS—Fetal Bovine Serum (Gibco 10082-147; lot #1354986), * PSG—Penicillin, Streptomycin, L-Glutamine Solution (CellGro 30-009-CI), * 0.1M Na Pyruvate (CellGro 25-000-CI), * 1.0M HEPES (CellGro 25-060-CI), AND * 45% Glucose (CellGro 25-037-CI). Seeding Densities* for IC50 Assays: A549 2.5×10^3; PC-3 6.0×10^3; HT-29 12×10^3; HCT-116 8.0×10^3; BxPC-3 12×10^3; and PANC-1 6.0×10^3 cells.

PC-3 = assay: MTT cell proliferation assay (Table 3); assay type: cell-based, human
Method: as §1, §2, §3, §4, §5

BxPC-3 = assay: MTT cell proliferation assay (Table 3); assay type: cell-based, human
Method: as §1, §2, §3, §4, §5

PANC-1 = assay: MTT cell proliferation assay (Table 3); assay type: cell-based, human
Method: as §1, §2, §3, §4, §5

A549 = assay: MTT cell proliferation assay (Table 3); assay type: cell-based, human
Method: as §1, §2, §3, §4, §5

HT-29 = assay: MTT cell proliferation assay (Table 3); assay type: cell-based, human
Method: as §1, §2, §3, §4, §5

[1] = tested on: pancreas cancer cells (BXPC-3); assay: FACS analysis of tumor cell binding; design: species or system human; conditions: 20 min on ice
Method: (§6) To analyze tumor cell binding, pancreas cancer cells (BXPC-3), stomach cancer cells (23132/87), lung carcinoma cells (A549) and malignant melanoma cells (HTB-69 and CRL-1424) were grown to subconfluency in complete medium, detached with Trypsin/EDTA and incubated on ice for 1 h for recreation. Tumor cells were subsequently incubated on ice with BARB4 antibody (diluted in PBS containing 0.01% sodium azide), or human isotype-matched control antibody (Chrompure human IgG, Dianova, Hamburg, Germany) for 20 min on ice. Following incubation, cells were incubated with a FITC-labeled rabbit anti-human IgG antibody (1:50, Dako, Germany) for 20 min on ice, and cells were analyzed by flow cytometry (FACScan; Becton Dickinson, USA).

[2] = tested on: lung carcinoma cells (A549); assay: FACS analysis of tumor cell binding; design: species or system human; conditions: 20 min on ice
Method: as §6

B1: BARB4: human IgG antibody produced by hybridoma DSMZ Deposit No. DSM ACC2876; heavy chain SEQ ID NOs:1, 3, 5, 7, light chain SEQ ID NO:9 (antibody, V domains shown)
VH: QVQLVESGGGVVQPGRSLRLSCAASGFRFTTHGMHWVRQAPGKGLEWVAVISYNGRNKYYADYVNGRFTISRDDSRDTVFLQMNSLRPEDTAMYYCAKVRGDGYGDYGYFDYWGHGTLVSVSS
VL: QSALTQPRSVSGSPGQSVTISCTGTYNYVSWYQQHPGKAPKLMIFDVSRRSSGVPDRFSGSKSGNTASLTISGLQAEDEADYYCCSYGGTYLYVFGTGTTVTVLGQ
IC50 24 hours (HCT-116; 24 hours): 24.8 µg/mL
IC50 48 hours (HCT-116; 48 hours): 77.3 µg/mL
IC50 72 hours (HCT-116; 72 hours): 95.2 µg/mL
IC50 24 hours (PC-3; 24 hours): 57.2 µg/mL
IC50 48 hours (PC-3; 48 hours): 64.2 µg/mL
IC50 72 hours (PC-3; 72 hours): 155.7 µg/mL
IC50 24 hours (BxPC-3; 24 hours): 88.9 µg/mL
IC50 48 hours (BxPC-3; 48 hours): 362.8 µg/mL
IC50 72 hours (BxPC-3; 72 hours): 511.4 µg/mL
IC50 24 hours (PANC-1; 24 hours): 91.4 µg/mL
IC50 48 hours (PANC-1; 48 hours): 337.1 µg/mL
IC50 72 hours (PANC-1; 72 hours): 353.2 µg/mL
IC50 24 hours (A549; 24 hours): 98.9 µg/mL
IC50 48 hours (A549; 48 hours): 111.2 µg/mL
IC50 72 hours (A549; 72 hours): 122.2 µg/mL
IC50 24 hours (HT-29; 24 hours): 399.5 µg/mL
IC50 48 hours (HT-29; 48 hours): 300.1 µg/mL
IC50 72 hours (HT-29; 72 hours): 228.8 µg/mL
tumor cell binding (FACS) [1]: binds
tumor cell binding (FACS) [2]: binds
